{
  "source": "paper PMC1533836",
  "molecular_target": "APNAnq 100 (100-kDa aminopeptidase N from Anopheles quadrimaculatus brush border membrane) (Anopheles quadrimaculatus)",
  "assay": "SPR",
  "data": [
    {"substance": "Bacillus thuringiensis Cry11Ba toxin (trypsin-activated) (from UniProt Q45730 1-724) (natural protein)", "values": [
      {"measurement": "koff", "result": "1.03e-07", "unit": "s⁻¹"},
      {"measurement": "kon", "result": 184, "unit": "M⁻¹ s⁻¹"}
    ]}
  ]
}
